According to paper PMC4120242:

Target: endogenous FcγRI on human monocytes (human (endogenous in blood monocytes)) (UniProt P12314)
UniProt P12314, sequence (P12314 16-374): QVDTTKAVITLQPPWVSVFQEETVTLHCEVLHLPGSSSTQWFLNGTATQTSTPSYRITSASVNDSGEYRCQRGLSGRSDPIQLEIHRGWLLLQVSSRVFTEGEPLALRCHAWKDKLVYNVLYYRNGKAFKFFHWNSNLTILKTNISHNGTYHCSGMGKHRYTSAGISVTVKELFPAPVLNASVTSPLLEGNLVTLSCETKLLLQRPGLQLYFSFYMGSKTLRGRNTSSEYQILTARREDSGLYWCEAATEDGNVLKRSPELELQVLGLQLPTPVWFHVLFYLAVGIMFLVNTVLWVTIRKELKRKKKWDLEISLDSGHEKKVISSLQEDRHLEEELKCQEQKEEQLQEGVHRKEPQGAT

- IC50 of inhibition of fibrocyte differentiation of human PBMCs: 2.9 nM
Substance: Serum Amyloid P component (SAP), wildtype (from UniProt P02743 20-223) (natural protein)
